In assay [1] the target is T1, human His6-GITR (human, UniProt Q9Y5U5 26-162).
T1 construct: His6-tagged recombinant protein; also called hGITR-His; human GITR-His
T1 sequence: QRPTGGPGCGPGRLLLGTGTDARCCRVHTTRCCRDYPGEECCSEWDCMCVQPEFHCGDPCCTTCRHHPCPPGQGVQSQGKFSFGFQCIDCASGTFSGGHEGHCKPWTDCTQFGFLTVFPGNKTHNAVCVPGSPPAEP
Briefly: ELISA, scFv periplasmic extract on coated His6-GITR. For orientation: In an ELISA, binding on a coated surface is turned into a signal by an enzyme label.

The target of the next assay is T2, mouse His6-GITR (mouse, UniProt O35714 20-153).
T2 construct: His6-tagged recombinant protein; also called mGITR-His; mouse GITR-His
T2 sequence: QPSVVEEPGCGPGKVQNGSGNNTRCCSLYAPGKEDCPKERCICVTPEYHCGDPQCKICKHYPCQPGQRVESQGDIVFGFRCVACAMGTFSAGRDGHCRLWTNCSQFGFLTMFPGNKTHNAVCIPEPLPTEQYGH
Described as above.

The target in assay [2] is T3, cynomolgus monkey His6-GITR (cynomolgus monkey).
T3 construct: His6-tagged recombinant protein; also called cGITR-His; cyno GITR-His
T3 chain: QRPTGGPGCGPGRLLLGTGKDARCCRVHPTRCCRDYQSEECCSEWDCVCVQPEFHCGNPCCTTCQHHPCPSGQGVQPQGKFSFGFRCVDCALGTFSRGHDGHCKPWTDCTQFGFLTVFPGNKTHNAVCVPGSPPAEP
Described as above.

Assay [3] deals with T1, human His6-GITR. Put plainly: CARTERRA LSA, scFv periplasmic extract.

B1: GITR-Mab-10 scFv (scFv, V domains shown)
VH: QVQLVQSGAEVKKPGASVKVSCKASGYTFTSNYMHWVRQAPGQGLEWMGWMNPNSGNTAYAQKFQGRVTMTRDTSTSTVYMELSSLRSEDTAVYYCARGRGGQLLFDYWGQGTLVTVSS
VL: DIQMTQSPSSLSASVGDRVTITCRASQGISSWLAWYQQKPGKAPKLLIYAASTLQSGVPSRFSGSGSGTDFTLTISSLQPEDFATYYCQQYNSYSTFGQGTKVEIK
notes: scFv in periplasmic extract, V5 tag
B1 returned a hGITR-His/BKG in the assay with human His6-GITR [1] of 34.2 fold over background. The mGITR-His/BKG in the assay with mouse His6-GITR is 1.1 fold over background. Further, in assay [2], the cGITR-His/BKG was 29.4 fold over background. This molecule also yielded a Kd in the assay with human His6-GITR [3] of 5.3 nM.

B2: GITR-Mab-7 scFv (scFv, V domains shown)
VH: QVQLVQSGAEVKKPGASVKVSCKASGGTSSTYAVTWVRQAPGQGLEWMGVINPNDGSTTYAQNFQGRVTMTRDTSTSTVYMELSSLRSEDTAVYYCARWTPLFGVVIPDYYYYGMDVWGQGTLVTVSS
VL: DIQMTQSPSSLSASVGDRVTITCQASQDISNYLNWYQQKPGKAPKLLIYAASSLQSGVPSRFSGSGSGTDFTLTISSLQPEDFATYYCQQSYSTPPTFGQGTRLEIK
notes: as for B1
Regarding B2, the hGITR-His/BKG in the assay with human His6-GITR [1] is 16.4 fold over background. Moreover, the mGITR-His/BKG with mouse His6-GITR came out at 1 fold over background. Moreover, the cGITR-His/BKG in assay [2] was found to be 9 fold over background. In the assay with human His6-GITR [3], the Kd worked out at 11.5 nM.

B3: GITR-Mab-9 scFv (scFv, V domains shown)
VH: QVQLVQSGAEVKKPGASVKVSCKASGHTFTSQYMHWVRQAPGQGLEWVGVINPNDGSTSYAQKFQGRVTMTRDTSTSTVYMELSSLRSEDTAVYYCARDGAYYYDSSGYYRSSNFDYWGQGTLVTVSS
VL: DIQMTQSPSSLSASVGDRVTITCQASQDIGNYLNWYQQKPGKAPKLLIYGASNLETGVPSRFSGSGSGTDFTLTISSLQPEDFATYYCQQGYSFPLTFGQGTKVEIK
notes: as for B1
Regarding B3, the hGITR-His/BKG with human His6-GITR [1] stood at 12.8 fold over background. The molecule further gave a mGITR-His/BKG in the assay with mouse His6-GITR of 1.1 fold over background. The molecule also showed a cGITR-His/BKG in assay [2] of 11.6 fold over background. The molecule further gave a dissociation constant (Kd) in the assay with human His6-GITR [3] of 3.3 nM.

B4: GITR-Mab-12 scFv (scFv, V domains shown)
VH: QVQLVQSGAEVKKPGASVKVSCKASGYTFTSYAINWVRQAPGQGLEWMGILSPSGGGTSYAPKFQGRVTMTRDTSTSTVYMELSSLRSEDTAVYYCARGPWYFDLWGRGTLVTVSS
VL: DIQMTQSPSSLSASVGDRVTITCRASQGISNSLAWYQQKPGKAPKLLIYAASSLQSGVPSRFSGSGSGTDFTLTISSLQPEDFATYYCQQSYSTPFTFGPGTKVDIK
notes: as for B1
Turning to B4, the hGITR-His/BKG in the assay with human His6-GITR [1] amounted to 37.8 fold over background. In the assay with mouse His6-GITR, this molecule returned a mGITR-His/BKG of 1 fold over background. Further, in assay [2], the cGITR-His/BKG is 16.9 fold over background. Moreover, binding with human His6-GITR [3] was characterised by a dissociation constant (Kd) of 7.5 nM.

B5: GITR-Mab-13 scFv (scFv, V domains shown)
VH: QVQLVQSGAEVKKPGSSVKVSCKASGGTFSSYAISWVRQAPGQGLEWMGGIVPMLGSPHYAQKFQGRVTITADESTSTAYMELSSLRSEDTAVYYCARGSWLVADFQHWGQGTLVTVSS
VL: not shown
notes: as for B1
In turn, B5 returned a hGITR-His/BKG in the assay with human His6-GITR [1] of 25.4 fold over background. The mGITR-His/BKG in the assay with mouse His6-GITR came out at 1.1 fold over background. Besides, the cGITR-His/BKG in assay [2] was 9.4 fold over background. This molecule showed a Kd with human His6-GITR [3] of 2.6 nM.

B6: GITR-Mab-8 scFv (scFv, V domains shown)
VH: QVQLVQSGAEVKKPGASVKVSCKASGGTFSSYVISWVRQAPGQGLEWMGWMNPGSGNTGYAQKFQGRVTMTRDTSTSTVYMELSSLRSEDTAVYYCITDSEDDYWGQGTLVTVSS
VL: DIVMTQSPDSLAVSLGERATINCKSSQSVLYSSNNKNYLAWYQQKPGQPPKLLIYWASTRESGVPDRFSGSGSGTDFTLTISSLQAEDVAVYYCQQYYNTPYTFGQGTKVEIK
notes: as for B1
In the assay with human His6-GITR [1], B6 registered a hGITR-His/BKG of 9.6 fold over background. The molecule also returned a mGITR-His/BKG with mouse His6-GITR of 1.4 fold over background. Further, the cGITR-His/BKG in assay [2] was determined as 16.1 fold over background. The dissociation constant (Kd) in the assay with human His6-GITR [3] was determined as 49.6 nM.

B7: GITR-Mab-2 scFv (scFv, V domains shown)
VH: QVQLVQSGAEVKKPGSSVKVSCKASGYRFTGYHLHWVRQAPGQGLEWMGGIIPIFGTANYAQKFQGRVTITADKSTSTAYMELSSLRSEDTAVYYCAYGVPPDPWGQGTLVTVSS
VL: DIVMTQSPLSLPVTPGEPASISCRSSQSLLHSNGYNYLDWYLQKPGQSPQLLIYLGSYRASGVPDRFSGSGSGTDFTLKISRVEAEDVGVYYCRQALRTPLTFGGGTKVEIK
notes: as for B1
B7 displayed a hGITR-His/BKG in the assay with human His6-GITR [1] of 20.1 fold over background. Besides, in the assay with mouse His6-GITR, the mGITR-His/BKG amounted to 1.1 fold over background. For the same molecule, the cGITR-His/BKG in assay [2] is 25.2 fold over background. Moreover, in the assay with human His6-GITR [3], the Kd was found to be 16.3 nM.

B8: GITR-Mab-11 scFv (scFv, V domains shown)
VH: QVQLVQSGAEVKKPGASVKVSCKASGGTFSNYGISWVRQAPGQGLEWMGIINPTDGSTTYAQKFQGRVTMTRDTSTSTVYMELSSLRSEDTAVYYCARWWGSGWSWYFDLWGRGTLVTVSS
VL: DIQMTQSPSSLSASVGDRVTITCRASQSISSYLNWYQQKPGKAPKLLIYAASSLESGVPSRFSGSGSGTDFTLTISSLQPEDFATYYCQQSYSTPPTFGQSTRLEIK
notes: as for B1
For B8, the hGITR-His/BKG with human His6-GITR [1] worked out at 21.8 fold over background. Also, the mGITR-His/BKG with mouse His6-GITR turned out to be 1.1 fold over background. In assay [2], this molecule had a cGITR-His/BKG of 15.6 fold over background. In the assay with human His6-GITR [3], binding was characterised by a dissociation constant (Kd) of 1.4 nM.

A word on the Kd: it is a measure of binding affinity in units of concentration.
